Entries after “also recorded” stand apart in the source; their conditions may differ. Marks after values point to notes of the source that are not given here.
B1: 238D4: Nanobody (VHH) raised against human CXCR4, SEQ ID NO: 239 (protein)
VHH: EVQLMESGGGLVQAGGSLRLSCAASGRTFNNYAMGWFRRAPGKEREFVAAITRSGVRSGVSAIYGDSVKDRFTISRDNAKNTLYLQMNSLKPEDTAVYTCAASAIGSGALRRFEYDYSGQGTQVTVSS
modifications: Nanobody, Nanobody constructs or fragments thereof
B2: 238D2: Nanobody (VHH) raised against human CXCR4, SEQ ID NO: 238 (protein)
VHH: EVQLVESGGGLVQTGGSLRLSCAASGFTFSSYAMSWVRQAPGKGLEWVSGIKSSGDSTRYAGSVKGRFTISRDNAKNMLYLQMYSLKPEDTAVYYCAKSRVSRTGLYTYDNRGQGTQVTVSS
modifications: Nanobody, Nanobody constructs or fragments thereof

Columns and labels:
CXCR4 [1] = target: T1, CXCR4 (Homo sapiens, UniProt P61073); assay: CRE/β-galactosidase reporter gene assay in HEK293T cells expressing CXCR4; format: cell-based; details: for Schild slope: log(CR-1) vs -log[Nanobody]
Protocol: (§1) HEK293T cells were maintained at 37° C. in a humidified 5% CO2, 95% air atmosphere in Dulbecco's modified Eagle's medium (DMEM) containing 2 mM L-glutamine, 50 IU/ml penicillin, 50 μg/ml streptomycin, and 10% (v/v) fetal calf serum. Jurkat cells were cultured in a humidified 5% CO2, 95% air atmosphere in a 1:1 mixture of Dulbecco's modified Eagle's medium (DMEM) and Ham's F12 medium containing 2 mM L-glutamine, 50 IU/ml penicillin, 50 μg/ml streptomycin, and 10% (v/v) fetal calf serum. […] [^125 I]-Labelling— Radiolabeling of Nanobodies with ^125I was performed using the Iodo-gen method (Pierce, Rockford, Ill.) according to the manufacturer's protocol. ^125I-labeled Nanobodies was separated from free iodine (>99%) using a Sephadex G-25 gel filtration column (Amersham Biosciences, Piscataway, N.J.). […] Competition Binding Assays— Membranes from HEK293T cells transiently expressing CXCR3 or CXCR4 were prepared 48 h after transfection as follows. Cells were washed and scraped from the cell culture dishes with ice-cold PBS containing 1 mm EDTA. The scraped cells were pelleted at 1500×g for 10 min at 4° C. The pellet was washed and then resuspended in ice-cold membrane buffer (15 mM Tris, pH 7.5, 1 mM EGTA, 0.3 mM EDTA, and 2 mM MgCl2). The cell suspension was homogenized by 10 strokes at 1200 rpm using a Teflon-glass homogenizer and rotor and further subjected to three freeze-thaw cycles using liquid nitrogen. Membranes were separated by centrifugation at 40,000 g for 25 min at 4° C. The membrane pellet was washed and resuspended in ice-cold Tris-sucrose buffer (20 mM Tris, pH 7.4, and 250 mM sucrose) and frozen in liquid nitrogen. The total protein was determined using a Bradford assay (Bio-Rad). Periplasmas (1:10) or ligands were pre-incubated with membranes in binding buffer (50 mM HEPES (pH 7.4), 1 mM CaCl2, 5 mM MgCl2, 100 mM NaCl, 0.5% bovine serum albumin) supplemented with 0.5% BSA for 1 h at 22° C. before the addition of [^125I]-CXCL12 (40 pM) or [^125I]-238D2 (3 nM) or [^125I]-238D4 (3 nM) for additional 2 h at 22° C. […] Membranes were then harvested over polyethylenimine (0.5%)-treated Whatman GF/C filter plates and washed three times with ice cold binding buffer containing 500 mM NaCl. Plates were counted by liquid scintillation. Inositol Phosphate Accumulation Assay— 24 hours post transfection with pcDNA3.1-CXCR4 and pcDNA1-HA-mG {alpha} qi5 (see Verzijl et al, 2008 supra), 250.000 cells were seeded into 24-wells plates and labelled overnight using inositol-free minimal essential medium supplemented with 1 μCi myo-[2-^3H]-inositol. The next day, the cells were washed once to remove not incorporated myo-[2-^3H]-inositol. […] In agonist experiments, the cells were directly stimulated with test compounds and LiCl (10 mM) in assay buffer for 2 h at 37° C. The stimulation was stopped by aspirating the stimulation medium and adding ice-cold 10 mM formic acid. The accumulated inositol phosphates were isolated by anion exchange chromatography and counted by liquid scintillation. CRE Reporter Gene Assay— HEK239T cells were transfected with pCRE/β-galactosidase (Chen W, Shields T S, Stork P J S, Cone R D (1995) Anal Biochem 226:349-354) and plasmids (pcDEF3 or pcDNA3.1) encoding the indicated receptors. 40,000 transfected cells per well were seeded into 96 well plates and grown in DMEM supplemented with 10% fetal calf serum. The medium was replaced 32 h after transfection by serum-free DMEM supplemented with 0.5% bovine serum albumin and ligands as indicated. Following 16 h of ligand incubation, the medium was removed, the cells were lysed in 100 μl of assay buffer (100 mM sodium phosphate buffer at pH 8.0, 4 mM 2-nitrophenol-β-D-pyranoside, 0.5% Triton X-100, 2 mM MgSO4, 0.1 mM MnCl2, and 40 mM β-mercaptoethanol) and incubated at room temperature. […]
Target sequence in this assay (P61073 whole entry): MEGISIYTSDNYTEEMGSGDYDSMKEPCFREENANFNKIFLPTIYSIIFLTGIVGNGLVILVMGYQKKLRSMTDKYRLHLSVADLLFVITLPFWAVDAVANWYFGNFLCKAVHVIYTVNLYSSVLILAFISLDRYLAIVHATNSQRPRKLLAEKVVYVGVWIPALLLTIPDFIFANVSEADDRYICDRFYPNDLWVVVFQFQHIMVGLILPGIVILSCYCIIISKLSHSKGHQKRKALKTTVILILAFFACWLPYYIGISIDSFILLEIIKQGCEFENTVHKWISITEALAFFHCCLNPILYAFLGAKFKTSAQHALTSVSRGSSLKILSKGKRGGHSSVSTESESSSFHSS

histamine H4 receptors = histamine H4 receptors (Homo sapiens, UniProt Q9H3N8); assay: CRE/β-galactosidase reporter gene selectivity screen, histamine H4 receptor; format: cell-based; details: up to 2.5, forskolin 3 μM, agonist at 50-80% Emax
Sequence of histamine H4 receptors (Q9H3N8 whole entry): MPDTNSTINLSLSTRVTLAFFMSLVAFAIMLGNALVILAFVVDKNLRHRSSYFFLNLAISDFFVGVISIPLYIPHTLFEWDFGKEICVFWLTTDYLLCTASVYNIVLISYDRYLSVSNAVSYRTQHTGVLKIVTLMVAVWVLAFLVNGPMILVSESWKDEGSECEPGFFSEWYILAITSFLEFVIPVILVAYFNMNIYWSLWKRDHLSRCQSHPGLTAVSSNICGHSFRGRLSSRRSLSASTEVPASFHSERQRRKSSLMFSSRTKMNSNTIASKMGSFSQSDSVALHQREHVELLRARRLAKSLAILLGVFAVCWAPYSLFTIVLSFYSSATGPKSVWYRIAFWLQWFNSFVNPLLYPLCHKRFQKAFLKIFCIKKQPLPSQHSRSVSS

β2-adrenoceptors = target: T2, β2-adrenoceptors (Homo sapiens, UniProt P07550); assay: CRE/β-galactosidase reporter gene selectivity screen, endogenous β2-adrenoceptors of HEK293T cells; format: cell-based; details: Nanobody 2.5 μM, salbutamol 100 nM, no forskolin
T2 construct: (or mock for the investigation of endogenously expressed β2 adrenoceptors); endogenous in cells; host or cells: HEK293T cells (mock-transfected)
Protocol: Data are shown as means±S.E.M. (n=2-3).
HEK293T cells were maintained at 37° C. in a humidified 5% CO2, 95% air atmosphere in Dulbecco's modified Eagle's medium (DMEM) containing 2 mM L-glutamine, 50 IU/ml penicillin, 50 μg/ml streptomycin, and 10% (v/v) fetal calf serum. Jurkat cells were cultured in a humidified 5% CO2, 95% air atmosphere in a 1:1 mixture of Dulbecco's modified Eagle's medium (DMEM) and Ham's F12 medium containing 2 mM L-glutamine, 50 IU/ml penicillin, 50 μg/ml streptomycin, and 10% (v/v) fetal calf serum. […] [^125 I]-Labelling— Radiolabeling of Nanobodies with ^125I was performed using the Iodo-gen method (Pierce, Rockford, Ill.) according to the manufacturer's protocol. ^125I-labeled Nanobodies was separated from free iodine (>99%) using a Sephadex G-25 gel filtration column (Amersham Biosciences, Piscataway, N.J.). […] Competition Binding Assays— Membranes from HEK293T cells transiently expressing CXCR3 or CXCR4 were prepared 48 h after transfection as follows. Cells were washed and scraped from the cell culture dishes with ice-cold PBS containing 1 mm EDTA. The scraped cells were pelleted at 1500×g for 10 min at 4° C. […] The total protein was determined using a Bradford assay (Bio-Rad). […] Plates were counted by liquid scintillation. […] The accumulated inositol phosphates were isolated by anion exchange chromatography and counted by liquid scintillation. […]

CXCR4 (N119A) = CXCR4 (N119A) (Homo sapiens, UniProt P61073, N119A); assay: Basal inositol phosphate accumulation in HEK293T cells expressing CXCR4 (N119A); format: cell-based; details: ligand-induced alteration of basal inositol phosphate accumulation
Sequence of CXCR4 (N119A) (P61073 whole entry N119A): as the sequence (P61073 whole entry) above, with N119A counted along it
Protocol: as §1, with “indicated.” for “indicated. Following 16 h of ligand incubation, the medium was removed, the cells were lysed in 100 μl of assay buffer (100 mM sodium phosphate buffer at pH 8.0, 4 mM 2-nitrophenol-β-D-pyranoside, 0.5% Triton X-100, 2 mM MgSO4, 0.1 mM MnCl2, and 40 mM β-mercaptoethanol) and incubated at room temperature.”

CXCR4 [2] = target: T1, CXCR4; assay: Phage ELISA binding assay on CHO-CXCR4 versus CHO membranes; parameters: expressed in transfected cells; host or cells: CHO cells (membrane preparation); details: monoclonal phages, CHO-CXCR4 vs CHO membranes
Protocol: FIG. 2. Results from Phage ELISA (as described in example 1.5).
In order to determine binding specificity of the Nanobodies, 15 ul of the produced phage were tested in an Phage ELISA binding assay.
In short, 2 ug in 100 ul PBS of membrane expressing either CXCR4 (CHO-CXCR4) or a non relevant GPCR(CHO) were coated directly on Maxisorp microtiter plates (Nunc) overnight at 4 C. Free binding sites were blocked using 4% Marvel in PBS for 1 h. Next, 15 ul of monoclonal phages was added in 100 ul 1% Marvel PBS for 2 hours. […] Binding specificity (binding to CHO-CXCR4) was determined based on OD values compared to controls (binding to CHO).
Target sequence in this assay (P61073 with tags, fused parts or gaps isoform P61073-2 limits assumed): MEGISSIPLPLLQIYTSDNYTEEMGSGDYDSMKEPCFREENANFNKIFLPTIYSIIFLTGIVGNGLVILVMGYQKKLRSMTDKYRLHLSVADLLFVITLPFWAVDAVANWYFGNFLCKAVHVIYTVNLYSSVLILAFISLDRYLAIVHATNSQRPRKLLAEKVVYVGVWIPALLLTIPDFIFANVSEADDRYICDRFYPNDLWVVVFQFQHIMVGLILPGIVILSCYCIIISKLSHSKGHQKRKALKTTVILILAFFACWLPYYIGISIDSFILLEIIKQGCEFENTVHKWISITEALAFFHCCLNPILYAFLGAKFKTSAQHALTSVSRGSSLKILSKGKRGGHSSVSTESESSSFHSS

[3] = HEK293T-CXCR4-CREbgal/0.01-100 nM CXCL12, mean ± S.E.M.

| Molecule | agonist activity in the absence of CXCL12, CRE reporter (CXCR4 [1]) | mode of antagonism of the CXCL12-induced activation of signal transduction (CXCR4 [1]) | Imax (%), CRE activation (CXCR4 [1]; [3]) | Schild slope (CXCR4 [1]) | effect on agonist-induced response at histamine H4 receptors (histamine H4 receptors) | effect on activation of endogenous β2-adrenoceptors by salbutamol (β2-adrenoceptors) | functional profile at CXCR4 (N119A) (CXCR4 (N119A)) | pKi or pIC50, CRE activation (CXCR4 [1]; [3]) | pKB (CXCR4 [1]; from Schild plot data, CXCL12-induced reporter gene response) | specificity toward CXCR4 expressing membrane compared to non-expressing membrane (CXCR4 [2]) |
| --- | --- | --- | --- | --- | --- | --- | --- | --- | --- | --- |
| B1 | No agonist activity; also recorded: did not show any agonist activity | competitive antagonism | 90 ± 15^a % | 0.71±0.17 | do not act as agonists or antagonists; also recorded: do not alter | do not act as agonists or antagonists; also recorded: did not inhibit | inverse antagonists; also recorded: partial inverse agonists |  |  |  |
| B2 | No agonist activity; also recorded: did not show any agonist activity | competitive antagonism | 104 ± 5^a % | 0.91±0.20 | do not act as agonists or antagonists; also recorded: do not alter | do not act as agonists or antagonists; also recorded: did not inhibit | neutral antagonist; also recorded: Neither significant agonistic nor inverse antagonistic activity | 7.64 ± 0.16^b | 7.64±0.16 | high specificity |

Reference: patent US9212226B2, “Amino acid sequences directed against CXCR4 and other GPCRs and compounds comprising the same” (Ablynx N.V., priority 2008, dated 2015)
